From publication PMC3669286

Target: Smad3 (UniProt P84022)
Experiment: co-immunoprecipitation, blot for 14-3-3σ
Details: reference: wild type; sites S69,S74

14-3-3σ (from UniProt P31947) S69/74A
binding against the reference: lost
